T1: EsCas13d, nuclease-dead (Eubacterium siraeum, UniProt B0MS50, R295A;H300A;R849A;H854A)
T1 sequence: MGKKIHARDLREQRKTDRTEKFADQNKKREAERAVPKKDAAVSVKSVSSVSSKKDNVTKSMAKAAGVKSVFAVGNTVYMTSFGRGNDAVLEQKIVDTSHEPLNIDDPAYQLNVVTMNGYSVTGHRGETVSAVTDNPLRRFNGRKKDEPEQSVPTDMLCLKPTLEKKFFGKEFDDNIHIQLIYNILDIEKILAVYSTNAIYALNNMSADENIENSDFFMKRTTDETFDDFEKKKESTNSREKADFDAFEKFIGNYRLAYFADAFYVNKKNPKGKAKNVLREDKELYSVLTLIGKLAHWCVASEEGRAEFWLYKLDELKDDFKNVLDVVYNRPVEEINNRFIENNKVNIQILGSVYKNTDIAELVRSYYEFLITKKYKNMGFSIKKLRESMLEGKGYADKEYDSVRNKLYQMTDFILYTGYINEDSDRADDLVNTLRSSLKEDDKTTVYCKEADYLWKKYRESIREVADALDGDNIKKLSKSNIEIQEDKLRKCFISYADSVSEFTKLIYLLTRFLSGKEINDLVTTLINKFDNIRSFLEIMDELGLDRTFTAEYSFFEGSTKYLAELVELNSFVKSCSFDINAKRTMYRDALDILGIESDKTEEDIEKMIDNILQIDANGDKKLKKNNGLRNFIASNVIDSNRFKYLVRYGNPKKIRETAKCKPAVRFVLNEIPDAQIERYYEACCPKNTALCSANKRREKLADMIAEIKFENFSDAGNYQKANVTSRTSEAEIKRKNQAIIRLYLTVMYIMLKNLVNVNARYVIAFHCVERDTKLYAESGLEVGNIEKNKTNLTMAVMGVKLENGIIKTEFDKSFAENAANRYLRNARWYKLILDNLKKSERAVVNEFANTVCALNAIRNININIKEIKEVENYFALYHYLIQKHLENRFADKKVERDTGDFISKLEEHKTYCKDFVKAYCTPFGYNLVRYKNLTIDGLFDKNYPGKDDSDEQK

B1: target 1 insU 3' of 13,insG 3' of 1 (mixed)
RNA 1: CACCCGUGCAAAAAUGCAGGGGUCUAAAACUGAGCGGAUAACCUCUCUAUGG
RNA 2: GGGAAUGGAUCCACAUCUACGAAUUCGUACCAUAGAGAGUGUUAUCCGCUCAGCCGAGAUCGGAAGAGCACACGU
B2: target 1 U19C (mixed)
RNA 1: CACCCGUGCAAAAAUGCAGGGGUCUAAAACUGAGCGGAUAACCUCUCUAUGG
RNA 2: GGGAAUGGAUCCACAUCUACGAAUUCGUACCACAGAGAGGUUAUCCGCUCACCGAGAUCGGAAGAGCACACGU
B3: target 1 insC 3' of 11,insA 3' of 10 (mixed)
RNA 1: CACCCGUGCAAAAAUGCAGGGGUCUAAAACUGAGCGGAUAACCUCUCUAUGG
RNA 2: GGGAAUGGAUCCACAUCUACGAAUUCGUACCAUAGAGAGGUCUAAUCCGCUCACCGAGAUCGGAAGAGCACACGU
B4: target 1 insC 3' of 17,insU 3' of 16 (mixed)
RNA 1: CACCCGUGCAAAAAUGCAGGGGUCUAAAACUGAGCGGAUAACCUCUCUAUGG
RNA 2: GGGAAUGGAUCCACAUCUACGAAUUCGUACCAUAGCAUGAGGUUAUCCGCUCACCGAGAUCGGAAGAGCACACGU
B5: target 1 insC 3' of 13,insG 3' of 7 (mixed)
RNA 1: CACCCGUGCAAAAAUGCAGGGGUCUAAAACUGAGCGGAUAACCUCUCUAUGG
RNA 2: GGGAAUGGAUCCACAUCUACGAAUUCGUACCAUAGAGAGCGUUAUCGCGCUCACCGAGAUCGGAAGAGCACACGU
B6: target 1 A1C (mixed)
RNA 1: CACCCGUGCAAAAAUGCAGGGGUCUAAAACUGAGCGGAUAACCUCUCUAUGG
RNA 2: GGGAAUGGAUCCACAUCUACGAAUUCGUACCAUAGAGAGGUUAUCCGCUCCCCGAGAUCGGAAGAGCACACGU
B7: target 1 C6A,A18C (mixed)
RNA 1: CACCCGUGCAAAAAUGCAGGGGUCUAAAACUGAGCGGAUAACCUCUCUAUGG
RNA 2: GGGAAUGGAUCCACAUCUACGAAUUCGUACCAUCGAGAGGUUAUCAGCUCACCGAGAUCGGAAGAGCACACGU
B8: target 1 U11A,C21A (mixed)
RNA 1: CACCCGUGCAAAAAUGCAGGGGUCUAAAACUGAGCGGAUAACCUCUCUAUGG
RNA 2: GGGAAUGGAUCCACAUCUACGAAUUCGUACAAUAGAGAGGAUAUCCGCUCACCGAGAUCGGAAGAGCACACGU
B9: target 1 insA 3' of 15,insU 3' of 13 (mixed)
RNA 1: CACCCGUGCAAAAAUGCAGGGGUCUAAAACUGAGCGGAUAACCUCUCUAUGG
RNA 2: GGGAAUGGAUCCACAUCUACGAAUUCGUACCAUAGAGAAGUGUUAUCCGCUCACCGAGAUCGGAAGAGCACACGU
B10: target 1 U10A,C22G (mixed)
RNA 1: CACCCGUGCAAAAAUGCAGGGGUCUAAAACUGAGCGGAUAACCUCUCUAUGG
RNA 2: GGGAAUGGAUCCACAUCUACGAAUUCGUAGCAUAGAGAGGUAAUCCGCUCACCGAGAUCGGAAGAGCACACGU
B11: target 1 C7A,U8G (mixed)
RNA 1: CACCCGUGCAAAAAUGCAGGGGUCUAAAACUGAGCGGAUAACCUCUCUAUGG
RNA 2: GGGAAUGGAUCCACAUCUACGAAUUCGUACCAUAGAGAGGUUAGACGCUCACCGAGAUCGGAAGAGCACACGU
B12: target 1 G15U,C22A (mixed)
RNA 1: CACCCGUGCAAAAAUGCAGGGGUCUAAAACUGAGCGGAUAACCUCUCUAUGG
RNA 2: GGGAAUGGAUCCACAUCUACGAAUUCGUAACAUAGAUAGGUUAUCCGCUCACCGAGAUCGGAAGAGCACACGU
B13: target 1 insA 3' of 21,insG 3' of 6 (mixed)
RNA 1: CACCCGUGCAAAAAUGCAGGGGUCUAAAACUGAGCGGAUAACCUCUCUAUGG
RNA 2: GGGAAUGGAUCCACAUCUACGAAUUCGUACCAAUAGAGAGGUUAUCCGGCUCACCGAGAUCGGAAGAGCACACGU
B14: target 1 U8G,A16G (mixed)
RNA 1: CACCCGUGCAAAAAUGCAGGGGUCUAAAACUGAGCGGAUAACCUCUCUAUGG
RNA 2: GGGAAUGGAUCCACAUCUACGAAUUCGUACCAUAGGGAGGUUAGCCGCUCACCGAGAUCGGAAGAGCACACGU
B15: target 1 C6G,U10G (mixed)
RNA 1: CACCCGUGCAAAAAUGCAGGGGUCUAAAACUGAGCGGAUAACCUCUCUAUGG
RNA 2: GGGAAUGGAUCCACAUCUACGAAUUCGUACCAUAGAGAGGUGAUCGGCUCACCGAGAUCGGAAGAGCACACGU
B16: target 1 A1G,U19C (mixed)
RNA 1: CACCCGUGCAAAAAUGCAGGGGUCUAAAACUGAGCGGAUAACCUCUCUAUGG
RNA 2: GGGAAUGGAUCCACAUCUACGAAUUCGUACCACAGAGAGGUUAUCCGCUCGCCGAGAUCGGAAGAGCACACGU
B17: target 1 insA 3' of 19,insG 3' of 9 (mixed)
RNA 1: CACCCGUGCAAAAAUGCAGGGGUCUAAAACUGAGCGGAUAACCUCUCUAUGG
RNA 2: GGGAAUGGAUCCACAUCUACGAAUUCGUACCAUAAGAGAGGUUAGUCCGCUCACCGAGAUCGGAAGAGCACACGU
B18: target 1 MT (mixed)
RNA 1: CACCCGUGCAAAAAUGCAGGGGUCUAAAACUGAGCGGAUAACCUCUCUAUGG
RNA 2: GGGAAUGGAUCCACAUCUACGAAUUCGUACCAUAGAGAGGUUAUCCGCUCACCGAGAUCGGAAGAGCACACGU
B19: target 1 insC 3' of 1,insU 3' of 1 (mixed)
RNA 1: CACCCGUGCAAAAAUGCAGGGGUCUAAAACUGAGCGGAUAACCUCUCUAUGG
RNA 2: GGGAAUGGAUCCACAUCUACGAAUUCGUACCAUAGAGAGGUUAUCCGCUCACUCCGAGAUCGGAAGAGCACACGU
B20: target 1 U11C,A18U (mixed)
RNA 1: CACCCGUGCAAAAAUGCAGGGGUCUAAAACUGAGCGGAUAACCUCUCUAUGG
RNA 2: GGGAAUGGAUCCACAUCUACGAAUUCGUACCAUUGAGAGGCUAUCCGCUCACCGAGAUCGGAAGAGCACACGU
B21: target 1 A1G (mixed)
RNA 1: CACCCGUGCAAAAAUGCAGGGGUCUAAAACUGAGCGGAUAACCUCUCUAUGG
RNA 2: GGGAAUGGAUCCACAUCUACGAAUUCGUACCAUAGAGAGGUUAUCCGCUCGCCGAGAUCGGAAGAGCACACGU
B22: target 1 A1U (mixed)
RNA 1: CACCCGUGCAAAAAUGCAGGGGUCUAAAACUGAGCGGAUAACCUCUCUAUGG
RNA 2: GGGAAUGGAUCCACAUCUACGAAUUCGUACCAUAGAGAGGUUAUCCGCUCUCCGAGAUCGGAAGAGCACACGU
B23: target 1 insC 3' of 20,insU 3' of 13 (mixed)
RNA 1: CACCCGUGCAAAAAUGCAGGGGUCUAAAACUGAGCGGAUAACCUCUCUAUGG
RNA 2: GGGAAUGGAUCCACAUCUACGAAUUCGUACCACUAGAGAGUGUUAUCCGCUCACCGAGAUCGGAAGAGCACACGU

The target of the data set is T1, EsCas13d, nuclease-dead. Nature of the data set: crRNA (strand 1, pre-loaded); Mg2+; 40 mM Tris-HCl pH 7.5, 150 mM NaCl, 6 mM MgCl2, 1 mM DTT, 0.1% Tween-20, 0.2 mg/ml BSA; 25 C; 10 min per concentration, then washed. The conditions noted are these: tags: His6-TwinStrep-SUMO cleaved; N-terminal SNAP kept (SNAP-Surface 488); label: 3' end held by stalled T7 RNA polymerase.
Usually Kd stands for the free concentration of one partner at which half of the binding sites on the other are occupied at equilibrium, for simple one-to-one binding. Read a high Kd as weaker binding. In turn, B1 yielded a Kd of 11.7 ± 1.7 nM.
B2 yielded a Kd of 21 ± 1.3 nM.
Next, B3: 30 ± 4 nM.
In the case of B4, the Kd was 40 ± 6 nM.
B5 came in with a Kd of 16.1 ± 1 nM.
For the molecule B6, the Kd amounted to 24 ± 4 nM. The Kd values of the last two molecules are within 1.5-fold of each other.
In turn, B7 registered a Kd of 54 ± 4 nM.
The result for B8 reads 64 ± 24 nM; that for B9, 19 ± 4 nM; that for B10, 76 ± 25 nM.
In turn, B11 returned a Kd of 9.8 ± 1.1 nM.
B12 yielded a Kd of 40 ± 6 nM.
Molecule B13 yielded a Kd of 22.1 ± 2.3 nM. This Kd is about 1.8-fold lower than that of the molecule before.
As to B14, the Kd was 39.4 ± 3.5 nM.
The result for B15 reads 15.2 ± 0.9 nM; that for B16, 35 ± 5 nM; that for B17, 37 ± 4 nM.
With B18, the Kd was determined as 8.62 ± 0.06 nM.
Next, B19: 10 ± 0.4 nM; B20: 45 ± 6 nM.
The result for B21 reads 8.6 ± 0.7 nM; that for B22, 8.5 ± 0.6 nM.
Turning to B23, the affinity, expressed as Kd, was 6.9 ± 0.7 nM. This Kd and that of the molecule before are within 1.5-fold of each other.

For the origin of these results see PMC10786891, “Massively parallel profiling of RNA-targeting CRISPR-Cas13d”.
